Data from patent US20190248907A1 (Merck KGaA, published 2019).

target: T1, human c-MET ECD (human, UniProt P08581 25-932); assay: not stated (summary of antibody properties, FIG. 6)
T1 construct: also called recombinant human c-MET ECD; human c-MET ECD-His
T1 sequence (P08581 25-932 limits assumed): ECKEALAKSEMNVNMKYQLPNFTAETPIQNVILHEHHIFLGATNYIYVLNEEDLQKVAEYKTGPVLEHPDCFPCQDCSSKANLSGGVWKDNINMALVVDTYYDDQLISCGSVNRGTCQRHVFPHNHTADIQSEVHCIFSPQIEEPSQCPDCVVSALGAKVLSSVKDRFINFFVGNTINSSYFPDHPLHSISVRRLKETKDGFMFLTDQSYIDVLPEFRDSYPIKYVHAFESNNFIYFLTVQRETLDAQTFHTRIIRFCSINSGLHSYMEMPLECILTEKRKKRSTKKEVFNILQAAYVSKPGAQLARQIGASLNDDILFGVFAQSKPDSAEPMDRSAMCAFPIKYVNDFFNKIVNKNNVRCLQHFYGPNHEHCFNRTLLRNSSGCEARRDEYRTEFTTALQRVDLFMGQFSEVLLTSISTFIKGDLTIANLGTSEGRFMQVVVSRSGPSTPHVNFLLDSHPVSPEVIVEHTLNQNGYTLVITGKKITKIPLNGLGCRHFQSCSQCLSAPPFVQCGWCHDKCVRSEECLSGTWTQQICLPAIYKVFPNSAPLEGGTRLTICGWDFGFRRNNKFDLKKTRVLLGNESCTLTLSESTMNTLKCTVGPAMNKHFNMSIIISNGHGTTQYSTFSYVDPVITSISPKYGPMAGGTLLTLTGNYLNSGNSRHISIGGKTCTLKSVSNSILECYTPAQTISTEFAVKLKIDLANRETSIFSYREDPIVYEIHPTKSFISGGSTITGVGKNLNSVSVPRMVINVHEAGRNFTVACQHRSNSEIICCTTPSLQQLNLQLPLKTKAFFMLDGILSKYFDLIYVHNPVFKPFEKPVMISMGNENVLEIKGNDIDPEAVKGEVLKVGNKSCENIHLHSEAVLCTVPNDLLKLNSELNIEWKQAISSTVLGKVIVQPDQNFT

Row | Kd | Binder
1 | ~0.3 nM | oa CS06 (antibody, V domains shown, also called one-armed CS06; anti-c-MET clone CS06 (monovalent one-armed format); copies: 1 + 1) VH: QVQLQQSGAEVKKPGSSAKVSCKASGGTFSSNAISWVRQAPGQGLEWMGGIIPIFGTAIYAQKFQGRVTITADESTSTAYMELSSLRSEDTAVYYCARDQRGYYYYYYYGMDVWGQGTTVTVSS VL: QLVLTQSPSVSVAPGKTARITCGGNNIRNVGVHWYQKKPGQAPILVVYDDDDRPSGVPERFSGSNSGNTATLTISRVEAGDEADYYCQVWDSATDQRVFGGGTKLTVL
2 | ~0.134 nM | CS06 IgG1 (antibody, V domains shown, Bivalent IgG1; also called anti-c-MET clone CS06) VH: QVQLQQSGAEVKKPGSSAKVSCKASGGTFSSNAISWVRQAPGQGLEWMGGIIPIFGTAIYAQKFQGRVTITADESTSTAYMELSSLRSEDTAVYYCARDQRGYYYYYYYGMDVWGQGTTVTVSS VL: QLVLTQSPSVSVAPGKTARITCGGNNIRNVGVHWYQKKPGQAPILVVYDDDDRPSGVPERFSGSNSGNTATLTISRVEAGDEADYYCQVWDSATDQRVFGGGTKLTVLG
3 | ~0.0196 nM | biparatopic bispecific heterodimeric immunoglobulin molecule comprising Fab fragments CS06 and B10v5 (bispecific antibody) chain 1: QLVLTQSPSVSVAPGKTARITCGGNNIRNVGVHWYQKKPGQAPILVVYDDDDRPSGVPERFSGSNSGNTATLTISRVEAGDEADYYCQVWDSATDQRVFGGGTKLTVLGQPKAG chain 2: QVQLQQSGAEVKKPGSSAKVSCKASGGTFSSNAISWVRQAPGQGLEWMGGIIPIFGTAIYAQKFQGRVTITADESTSTAYMELSSLRSEDTAVYYCARDQRGYYYYYYYGMDVWGQGTTVTVSS chain 3: EPVLTQPPSVSVAPGETATIPCGGDSLGSKIVHWYQQRPGQAPLLVVYDDAARPSGIPERFSGSKSGTTATLTISSVEAGDEADYFCQVYDYHSDVEVFGGGTKLTVLGQPKAA chain 4: not shown
